Bounds are passed on as bounds.

For assay [1], the system named is alkaline phosphatase translocation in E. coli JM109 (DE3). As to the kind of experiment: Induction and transport of alkaline phosphatase under phosphate starvation (immunoblot). Conditions: low phosphate (50 μM), cells harvested at the two growth peaks. Format: cell-based, Escherichia coli. The text has this: The directionality of the distribution of Bce44B in the cytoplasmic membrane and the capability of the bacterium to recognize and integrate Bce44B into the membrane raised the possibility that Bce44B may be functional as a foreign component of the bacterial protein transport apparatus. Functionality of Bce44B was therefore assessed by monitoring two transported bacterial proteins, alkaline phosphatase and , β-lactamase. Alkaline phosphatase is a single copy gene and is transported into the periplasm upon induction by phosphate starvation (50 μM) (Torriani et al. (1960) Biochim. Biophys. Acta. 38:460). The growth characteristics of Bce44B-containing bacteria were compared to those of a strain expressing Oee1-Dhfr, a chimeric chloroplast protein precursor. The expression vector used in the Oee1-Dhfr transformed strain was the same as the one in the Bce44B transformed cells. Growth was monitored in M9 minimal media with growth-permissive phosphate levels or with low phosphate levels (50 μM).
The induction and analysis of alkaline phosphatase was performed as described by Torniani et al. (1960) Biochim. Biophys. Acta. 38:460. […]
(In general: Immunoblotting shows a protein as a band on a membrane.)

The subject of assay [2] is β-lactamase transport in E. coli JM109(DE3). As to the kind of experiment: Ampicillin resistance, ability to form colonies on LB-agar plates with increasing ampicillin. Format: cell-based, Escherichia coli. Conditions: solid agar media with increasing ampicillin. The text has this:
The enhancement of protein translocation was further investigated using the plasmid-borne multicopy gene, β-lactamase. See Example 14. β-lactamase protein levels are much higher than induced alkaline phosphatase making this system a more sensitive monitor of protein translocation without the complications posed by low phosphate induction. Like alkaline phosphatase, β-lactamase is translocated into the periplasm, where it detoxifies the antibiotic ampicillin, thereby conferring ampicillin-resistance to cells. Because the level of antibiotic resistance conferred also reflects the level of protein transport activity, the level of ampicillin resistance was determined for Bce44B expressing cells and compared to that of Oee1-Dhfr-expressing cells on solid agar media containing increasing concentrations of ampicillin. […] The Bce44B-expressing cells formed colonies with ampicillin concentrations as high as 3 mg/ml, whereas Oee1-Dhfr-expressing cells could not form colonies beyond 1 mg/ml.
Changes to β-lactamase transport were monitored by two different approaches: 1) the ability to form colonies on solid LB-agar plates containing increasing concentrations of ampicillin (50 μg/ml to 3.0 mg/ml); and 2) the level of transported and processed β-lactamase detected by immunoblotting total protein samples of cells grown in LB-broth containing increasing ampicillin concentrations. […]

B1: Bce44B: plastid transport protein, Brassica napus 44 kDa chloroplast envelope protein, member of Com44/Cim44, encoded by SEQ ID NO:1 (protein)
chain: MQTAMKTMMNQMNTQNSQFNNPGFPTGAGAGAGSPFPFPFPPQTSPTTSPFQPQSQSSGATVDLTATKVDRPPVSKPQPTPIPPTKSIEVYKPSVVVEENKAMKEEKNYAFEDVSPEETTKESPFSNYEEVSETSAPKETRLFDDVLQNGAAPANGATASDVFQSLGAGKGWAGGSVEVLEKMIEYPTFQKMLYPHLPEEMRNPESFKWVRKNPQYRQQLQDMLNNMSESGEWDKRMTETLKNFDPNSPEVKQGFDQLGLTPEEVISKIMENPDVSMAFQNPRVEAALMDCSENPMNIMKYQNDKEVMDVFNKISQLFPGLTG
In the case of B1, the “level of processed alkaline phosphatase relative to Oee1-Dhfr-expressing cells” value in assay [1] is on record as “higher level”. The “ampicillin concentration up to which expressing cells form colonies” value in assay [2] is at most 3 mg/mL.

For the origin of these results see patent publication US6353153B1, “Enhanced transport with a plastid membrane transport protein” (priority 1996, dated 2002).
